Test results reported in patent US20260042834A1 (HBM ALPHA THERAPEUTICS, published 2026).
Residue numbers refer to the chain shown, from its start. “And” between values parts separate entries of the source, which are not always exact repeats. Equal entries are not always repeated. Blank lines part the entries; values can stand above or below the binder they belong to.

Assays:
[1] = target: T1, corticotropin-releasing hormone (CRH) peptide (human and mouse, not fully specified); test: cell-based or functional assay
T1 peptide: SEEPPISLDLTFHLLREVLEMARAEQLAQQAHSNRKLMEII

[2] = target: T2, human UCN1 peptide (human, UniProt P55089 83-122); test: cell-based or functional assay
T2 peptide (looked up): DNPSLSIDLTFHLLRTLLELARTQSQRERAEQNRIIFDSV

[3] = target: T3, human UCN2 peptide (human, UniProt Q96RP3 72-109, limits assumed, not fully specified; biotin at N- or C-terminus in the ELISA); test: ELISA on streptavidin-captured hUCN2 (NT biotin) and hUCN2 (CT biotin), mAb at 100 nM and 10 nM; axis labelled RLU, scale 0-4
T3 construct: also called hUCN2; hUCN2 (NT Biotin)
T3 peptide (looked up): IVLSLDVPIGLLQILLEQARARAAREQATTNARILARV
Protocol: (§1) Streptavidin (Thermo, Cat: 21125) was diluted in PBS with a concentration of 2 μg/mL. 100 μL of diluted streptavidin was added per well to ELISA microplates, and the plates were incubated overnight at 4° C. Plates were blocked with ELISA blocking solution (containing 2% w/v BSA, 0.05% (v/v) Tween-20, pH 7.4 PBS buffer) at 37° C. for 1 hour, and then incubated with either 1 μg/mL hUCN1 (NT Biotin), hUCN1 (CT Biotin), hUCN2 (NT Biotin), hUCN2 (CT Biotin), hUCN3 (NT Biotin), or hUCN3 (CT Biotin) for 1 hour at 37° C. […] 100 μl of TMB Substrate (Biopanda, Cat: TMB-S-003) was added, and the plates were incubated at room temperature for 15 minutes. 100 μL of ELISA stopping solution (Solarbio, Cat #: C1058) was then added to terminate the reaction, and the OD450 nm was determined by an ELISA plate reader (Molecular Devices, Spectra max 384 plus).

[4] = target: T4, CRH (CT Biotin) (human and mouse, C-terminal K-Biotin); test: ELISA, biotin peptide on streptavidin plate
T4 construct: also called Peptide 4 (CRH-Biotin)
T4 peptide: T1 peptide
Protocol: (§2) Streptavidin (Thermo, Cat: 21125) was diluted in PBS to a concentration of 2 μg/ml. 100 μl of diluted streptavidin was added per well to ELISA microplates, and the plates were incubated overnight at 4° C. […] 100 μL of 3,3′,5,5′-tetramethylbenzidine (TMB) substrate (Biopanda, Cat: TMB-S-003) was added, and the plates were incubated at room temperature for 15 minutes. 100 μL of ELISA stopping solution (Solarbio, Cat #: C1058) was added to terminate the reaction, and the optical density at 450 nm (OD450 nm) was determined by an ELISA plate reader (Molecular Devices, Spectra max 384 plus).

[5] = target: T5, hUCN1 (CT Biotin) (human, UniProt P55089 83-122, biotin at the C-terminus); test: ELISA, biotin peptide on streptavidin plate
T5 construct: also called human UCN1 (CT biotin)
T5 peptide (looked up): T2 peptide (looked up)
Protocol: as §2

[6] = target: T6, CRH (NT Biotin) (human and mouse, not fully specified; biotin at the N-terminus); test: ELISA, biotin peptide on streptavidin plate
T6 peptide: T1 peptide
Protocol: as §2

[7] = target: T7, hUCN1 (NT Biotin) (human, UniProt P55089 83-122, biotin at the N-terminus); test: ELISA, biotin peptide on streptavidin plate
T7 construct: also called human UCN1 (NT biotin)
T7 peptide (looked up): T2 peptide (looked up)
Protocol: as §2

[8] = target: T8, biotinylated CRH (human and mouse, not fully specified; biotinylated, position not stated); test: Octet BLI, biotinylated CRH on SA sensor
T8 construct: also called Biotin-CRH; biotin-labeled CRH
T8 peptide: T1 peptide

[9] = target: T3, human UCN2 peptide; test: ELISA, biotinylated hUCN2 on streptavidin plates
Protocol: as §1

[10] = target: T9, human UCN3 peptide (human, UniProt Q969E3 120-157, not fully specified; biotin at N- or C-terminus in the ELISA); test: ELISA, biotinylated hUCN3 on streptavidin plates
T9 construct: also called hUCN3; hUCN3 (NT Biotin)
T9 peptide (looked up): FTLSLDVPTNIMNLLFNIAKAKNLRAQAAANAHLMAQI
Protocol: as §1

B1: PR302341-34 (antibody, human IgG1, kappa, V domains shown)
VH: QVQLVQSGAEVKKPGASVKVSCKASGYTFTDYFMKWVRQAPGQGLEWMGVINPNQGDIFYNQKFKGRVTMTVDKSISTAYMELSRLRSDDTAVYYCARGTDRALFAYWGQGTLVTVSS
VL: DVVMTQSPLSLPVTLGQPASISCRSGQSIVHSDANTYLEWYQQRPGQSPRLLIYKVSNRFSGVPDRFSGSGSGTDFTLKISRVEAEDLGVYYCFQGSHIPWTFGGGTKVEIKR
notes: Humanized, PTM-removed variant of PR302341
CHO-CRE-hCRHR1 0.5 nM CRH IC50 [1]: 0.616 nM
CHO-CRE-hCRHR1 1 nM hUCH1 IC50 [2]: 21.9 nM and 30 nM
binding result [3]: no binding (tested: 100 nM)
EC50 [4]: 0.027 nM
EC50 [5]: 0.03 nM and 0.022 nM
EC50 [6]: 0.025 nM and 0.038 nM
EC50 [7]: 0.019 nM and 0.016 nM
Kd [8]: < 1 pM

B2: PR302309-8 (antibody, human IgG1, kappa, V domains shown)
VH: QIQLVQSGSELKKPGASVKVSCKASGYTFTNYGMNWVRQAPGQGLEWMGWINTYTGEPIYTDDFKGRFVFSLDTSVSTAYLQISSLKAEDTAVYYCSRSTMITTGGVFAYWGQGTLVTVSS
VL: B1 VL with G26S, S28T, A34G, I99V
notes: Humanized variant of PR302309
binding result [9]: no binding (tested: 100 nM)
binding result [10]: no binding (tested: 100 nM)

B5: PR302309-11 (antibody, human IgG1, kappa, V domains shown)
VH: B2 VH
VL: DIVMTQTPLSSPVTLGQPASISCRSSQTIVHSDGNTYLEWLQQRPGQPPRLLIYKVSNRFSGVPDRFSGSGAGTDFTLKISRVEAEDVGVYYCFQGSHVPWTFGGGTKVEIKR
notes: Humanized variant of PR302309
binding result [9]: no binding (tested: 100 nM)
binding result [10]: no binding (tested: 100 nM)

B6: PR302341-28 (antibody, human IgG1, kappa, V domains shown)
VH: B1 VH
VL: B1 VL with A34G
notes: as for B1
CHO-CRE-hCRHR1 0.5 nM CRH IC50 [1]: 0.267 nM
CHO-CRE-hCRHR1 1 nM hUCH1 IC50 [2]: 33 nM
hUCN1 IC50/ CRH IC50 [2]: 124 fold
binding result [3]: no binding (tested: 100 nM)
EC50 [4]: 0.037 nM
EC50 [5]: 0.032 nM
EC50 [6]: 0.052 nM
EC50 [7]: 0.026 nM
Kd [8]: < 1 pM
koff [8]: < 1e-07 s⁻¹
kon [8]: 2.63e+06 M⁻¹ s⁻¹

More lines, in order of falling EC50 [4], values ahead:

CHO-CRE-hCRHR1 0.5 nM CRH IC50 [1]: 0.878 nM
CHO-CRE-hCRHR1 1 nM hUCH1 IC50 [2]: 71 nM
hUCN1 IC50/ CRH IC50 [2]: 81 fold
binding result [3]: no binding (tested: 100 nM)
EC50 [4]: 0.036 nM
EC50 [5]: 0.036 nM
EC50 [6]: 0.043 nM
EC50 [7]: 0.026 nM
Kd [8]: 14.2 pM
koff [8]: 3.35e-05 s⁻¹
kon [8]: 2.49e+06 M⁻¹ s⁻¹
B7: PR302341-60 (antibody, human IgG1, kappa, V domains shown)
VH: B1 VH with G44R, M70I, V72R, K74T, I76A, R85S, D89E
VL: B1 VL
notes: as for B1

CHO-CRE-hCRHR1 0.5 nM CRH IC50 [1]: 0.507 nM
CHO-CRE-hCRHR1 1 nM hUCH1 IC50 [2]: 30 nM
hUCN1 IC50/ CRH IC50 [2]: 59 fold
binding result [3]: no binding (tested: 100 nM)
EC50 [4]: 0.028 nM
EC50 [5]: 0.023 nM
EC50 [6]: 0.045 nM
EC50 [7]: 0.017 nM
Kd [8]: < 1 pM
koff [8]: < 1e-07 s⁻¹
kon [8]: 1.04e+06 M⁻¹ s⁻¹
B4: PR302341-48 (antibody, human IgG1, kappa, V domains shown)
VH: B1 VH with I76T, R85S, D89E
VL: B1 VL with S7T, L11S, S48P, S72A
notes: as for B1

CHO-CRE-hCRHR1 0.5 nM CRH IC50 [1]: 0.105 nM
CHO-CRE-hCRHR1 1 nM hUCH1 IC50 [2]: 28 nM
hUCN1 IC50/ CRH IC50 [2]: 267 fold
binding result [3]: no binding (tested: 100 nM)
EC50 [4]: 0.019 nM
EC50 [5]: 0.018 nM
EC50 [6]: 0.022 nM
EC50 [7]: 0.013 nM
Kd [8]: < 1 pM
koff [8]: < 1e-07 s⁻¹
kon [8]: 1.2e+06 M⁻¹ s⁻¹
B3: PR302341-55 (antibody, human IgG1, kappa, V domains shown)
VH: B1 VH with G44R, Q55N, G56A, M70I, V72R, K74T, I76A, R85S, D89E
VL: B1 VL with A34G
notes: as for B1
